In the assay the target is C3 convertase of the alternative pathway (C3bBb) formed on C3b-coated wells (UniProt P01024). Kind of assay: cell-based or functional assay.
Sequence of C3 convertase of the alternative pathway (C3bBb) formed on C3b-coated wells (P01024 749-1663 limits assumed, chain 1 of 3): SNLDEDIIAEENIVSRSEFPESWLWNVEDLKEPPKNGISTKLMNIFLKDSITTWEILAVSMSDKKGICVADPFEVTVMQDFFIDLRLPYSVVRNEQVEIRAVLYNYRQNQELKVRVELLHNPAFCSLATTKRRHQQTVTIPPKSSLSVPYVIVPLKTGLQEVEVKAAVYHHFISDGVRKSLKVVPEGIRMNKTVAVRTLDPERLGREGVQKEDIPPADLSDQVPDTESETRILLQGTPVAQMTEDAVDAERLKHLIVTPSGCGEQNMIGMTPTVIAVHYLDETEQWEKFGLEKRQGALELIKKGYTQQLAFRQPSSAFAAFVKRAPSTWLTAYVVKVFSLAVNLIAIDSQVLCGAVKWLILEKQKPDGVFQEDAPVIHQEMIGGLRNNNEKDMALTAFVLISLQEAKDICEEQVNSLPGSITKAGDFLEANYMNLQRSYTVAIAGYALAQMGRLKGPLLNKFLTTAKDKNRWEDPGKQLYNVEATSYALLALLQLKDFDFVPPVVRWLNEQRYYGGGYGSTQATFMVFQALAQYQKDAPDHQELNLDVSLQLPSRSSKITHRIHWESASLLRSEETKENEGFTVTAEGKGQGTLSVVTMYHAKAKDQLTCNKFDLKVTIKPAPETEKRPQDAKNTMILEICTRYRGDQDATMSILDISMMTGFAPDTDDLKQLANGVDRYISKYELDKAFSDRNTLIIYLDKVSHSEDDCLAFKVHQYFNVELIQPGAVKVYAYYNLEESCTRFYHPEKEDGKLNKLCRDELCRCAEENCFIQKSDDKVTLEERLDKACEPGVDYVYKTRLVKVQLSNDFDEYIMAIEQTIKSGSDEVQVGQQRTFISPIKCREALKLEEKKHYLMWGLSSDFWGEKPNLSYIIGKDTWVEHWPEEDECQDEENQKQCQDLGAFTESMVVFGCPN
Sequence of C3 convertase of the alternative pathway (C3bBb) formed on C3b-coated wells (P01024 23-667 limits assumed, chain 2 of 3): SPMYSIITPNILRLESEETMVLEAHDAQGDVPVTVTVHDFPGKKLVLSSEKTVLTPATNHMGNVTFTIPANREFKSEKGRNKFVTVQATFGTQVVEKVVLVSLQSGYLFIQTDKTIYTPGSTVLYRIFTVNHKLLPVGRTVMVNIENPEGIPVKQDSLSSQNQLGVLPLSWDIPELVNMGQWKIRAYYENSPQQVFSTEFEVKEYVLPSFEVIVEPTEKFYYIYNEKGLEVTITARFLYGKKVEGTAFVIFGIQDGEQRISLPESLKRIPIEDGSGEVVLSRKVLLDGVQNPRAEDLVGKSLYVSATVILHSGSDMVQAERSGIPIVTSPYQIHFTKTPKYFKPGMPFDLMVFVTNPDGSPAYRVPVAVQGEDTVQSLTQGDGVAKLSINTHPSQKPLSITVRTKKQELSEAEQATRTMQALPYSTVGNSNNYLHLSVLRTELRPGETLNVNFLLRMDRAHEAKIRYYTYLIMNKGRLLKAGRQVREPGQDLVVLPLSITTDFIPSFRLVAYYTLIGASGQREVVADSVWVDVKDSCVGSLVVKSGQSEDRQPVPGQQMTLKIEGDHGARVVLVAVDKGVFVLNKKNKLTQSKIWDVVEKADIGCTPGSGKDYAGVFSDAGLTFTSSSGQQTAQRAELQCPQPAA
Sequence of C3 convertase of the alternative pathway (C3bBb) formed on C3b-coated wells (P00751 260-764 limits assumed, chain 3 of 3, further chain): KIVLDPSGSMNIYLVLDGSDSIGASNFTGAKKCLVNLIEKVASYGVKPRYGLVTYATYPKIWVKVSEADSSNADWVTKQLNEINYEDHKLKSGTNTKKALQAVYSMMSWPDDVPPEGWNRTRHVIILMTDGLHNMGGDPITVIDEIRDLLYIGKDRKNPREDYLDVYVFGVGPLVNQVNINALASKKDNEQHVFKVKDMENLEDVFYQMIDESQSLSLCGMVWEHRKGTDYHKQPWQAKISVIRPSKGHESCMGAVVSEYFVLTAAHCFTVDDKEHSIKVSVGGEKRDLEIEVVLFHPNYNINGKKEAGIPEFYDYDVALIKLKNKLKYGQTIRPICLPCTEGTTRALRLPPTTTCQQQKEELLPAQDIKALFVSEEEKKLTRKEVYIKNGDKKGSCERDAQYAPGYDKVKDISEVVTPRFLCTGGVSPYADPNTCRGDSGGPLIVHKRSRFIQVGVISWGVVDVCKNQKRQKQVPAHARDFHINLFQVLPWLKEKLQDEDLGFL

Substance “factor H of the pool plasma (ECQ 1) (from UniProt P08603 19-1231)” gave a mean IC50 (printed '1050'), acceleration of the dissociation of C3 convertase, pool plasma of 0.058 µg/mL.
“Human Factor H Calibrator NL (The Binding Site, Ref: RP030) (from UniProt P08603 19-1231)”: the IC50, acceleration of the dissociation of C3 convertase (sample: FH plasma calibrator (The binding site)) is 0.0681 µg/mL.
In turn, “purified human plasma factor H (batch LFB) (from UniProt P08603 19-1231)” returned an IC50, acceleration of the dissociation of C3 convertase (sample: Formulated plasma FH, purified protein) of 0.0179 µg/mL; an IC50, acceleration of the dissociation of C3 convertase (sample: Formulated purified FH plasma) of 0.0546 µg/mL; an IC50, acceleration of the dissociation of C3 convertase (sample: Plasma FH PBS 1X) of 0.0152 µg/mL; an IC50, acceleration of the dissociation of C3 convertase (sample: Purified FH plasma PBS 1X) of 0.0438 µg/mL.

The record behind these values is patent US20140271603A1.
